# Reference: patent publication US20220112288A1 (published 2022)
# Positions count from the first letter of the chain named.
# B1: 75110_05B13A (antibody, V domains shown)
# VH: QVLLEQWGAGLLKPSETLSLTCAVYGGSFSGYYWTWIRQPPGKGLEWIGEINHRGSTNYNPSLKSRVTISIDTSKNQFSLKVKSVTAADTAMYYCTRPDSNWFDPWGQGTLVTVSS
# VL: DIQMTQSPSSVSASVGDRVTITCRASQDISNWLAWYQQKPGKAPKLLIFAASSLQSGVPSRFSGSGSGTDFTLTISSLQPEDFATYYCQQANSFPLTFGGGTKVEIK
# notes: Tested here as non-clonal hybridoma supernatant from AlivaMab Mouse Kappa mice (detected with anti-mouse Fc and anti-human kappa)
# B2: 75110_04P08A (antibody, V domains shown)
# VH: QVQLQQWGAGLLKPSETLSLTCAVYGGSLSGYYWSWIRQSPGKGLEWIGEINQSGSTNYNPSLKSRVTISVDTSKDQFSLRLTSVTAADTAVYYCTRVLNWFDPWGRGTLVTVSS
# VL: B1 VL with I21L, F49Y, P80T, L96Y, G100Q, V104L
# notes: as for B1
# B3: 75110_10K21A (antibody, V domains shown)
# VH: EVQLVESGGGLVQPGGSLRLSCAASGFTFSSYWMTWVRQAPGKGLEWVANIKQDGSEKYYVDSVKGRFTISRDNAKNSLYLQMNSLRAEDTAVYYCVRDRYDALDIWGQGTMVTVSS
# VL: AIQMTQSPSSLSASVGDRVTITCRASQGIRNDLNWYQQKPGKAPKLLIYAASSLQSGVPSRFSGSGSGTDFTLTISSLQAEDFATYYCLKDYNYPYTFGQGTKLEIK
# notes: Tested as non-clonal AlivaMab Mouse hybridoma supernatant (human variable regions and human kappa, mouse Fc); also called ADS75110 non-clonal supernatant 10K21A
# B4: 75110_04G16A (antibody, V domains shown)
# VH: QVQLQESGPGLVKPSQTLSLTCTVSGDSISSGYYYWSWIRQHPGKGLEWIGYISYSGSTYYNPSLKSRLTISVNTSKNQFSLKLSSLTAADTAVYYCARDRPSNFDAFDIWGQGTMVTVSS
# VL: EIVLTQSPGTLSLSPGERATLSCRASQSVGSTYLAWYQQKPGQAPRLLIYGAFSRATGIPDRFSGSGSGTDFTLTISRLEPEDFAVYYCQQYGSSPLTFGPGTKVDIK
# notes: Tested as non-clonal AlivaMab Mouse hybridoma supernatant (chimeric: human variable regions and human kappa, mouse Fc, captured by anti-mouse IgG Fc sensors); also called ADS75110 non-clonal supernatant 04G16A
# B5: 75110_08H11A (antibody, V domains shown)
# VH: EVQLVESGGGLVQPGGSLRLSCAASGFTFSSYDMHWVRQATGKGLEWVSTIGTAGDTYYPGSVKGRFTISRENAKNSLYLQMNSLRAGDTAVYYCARGGYSYYGMDVWGQGTTVTVSS
# VL: B4 VL with R24G, G30S, F53S, Y92F, L97F
# notes: Tested as non-clonal AlivaMab Mouse hybridoma supernatant (human variable regions and human kappa, mouse Fc); also called ADS75110 non-clonal supernatant 08H11A
# B6: 75110_01G11A (antibody, V domains shown)
# VH: B5 VH with K75R, Y79F, Y100D, S101Y
# VL: B4 VL with S14F, S28N, V29T, G30Y, T32S, F53S, S54N, Y92H, S94T, L97F
# notes: Tested as non-clonal AlivaMab Mouse hybridoma supernatant (human variable regions and human kappa, mouse Fc); also called ADS75110 non-clonal supernatant 01G11A
# B7: 75110_01J17A (antibody, V domains shown)
# VH: B5 VH with A40G, G55D, K75E, Y100D, S101Y
# VL: B4 VL with T5A, G30Y, S31I, T32S, F53S, S77T, Y92F, L97F, I107F
# notes: Tested as non-clonal AlivaMab Mouse hybridoma supernatant (human variable regions and human kappa, mouse Fc); also called ADS75110 non-clonal supernatant 01J17A
# B8: 75110_10N21A (antibody, V domains shown)
# VH: B5 VH with A40V, S101Y
# VL: B4 VL with V29F, G30I, T32S, F53S, E80D, Y92S, S94N, L97F, I107V
# notes: Tested as non-clonal AlivaMab Mouse hybridoma supernatant (human variable regions and human kappa, mouse Fc); also called ADS75110 non-clonal supernatant 10N21A
# B9: 75110_08H06A (antibody, V domains shown)
# VH: B5 VH with S31N, S101D
# VL: B4 VL with V29I, G30T, T32I, Q38R, F53S, L97F
# notes: Tested as non-clonal AlivaMab Mouse hybridoma supernatant (human variable regions and human kappa, mouse Fc); also called ADS75110 non-clonal supernatant 08H06A
# B10: 75110_04F22A (antibody, V domains shown)
# VH: B5 VH with M34I, S101Y
# VL: B4 VL with G30Y, T32S, F53S, Y92F, S94T, L97F
# notes: Tested as non-clonal AlivaMab Mouse hybridoma supernatant (human variable regions and human kappa, mouse Fc); also called ADS75110 non-clonal supernatant 04F22A
# B11: 75110_14H13A (antibody, V domains shown)
# VH: B5 VH with S31N, E72K, N83I, Y100D, S101Y
# VL: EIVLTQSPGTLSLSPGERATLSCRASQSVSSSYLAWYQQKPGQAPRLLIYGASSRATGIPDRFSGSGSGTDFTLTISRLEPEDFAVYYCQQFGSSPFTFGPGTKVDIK
# notes: Tested as non-clonal AlivaMab Mouse hybridoma supernatant (human variable regions and human kappa, mouse Fc); also called ADS75110 non-clonal supernatant 14H13A
# B12: 75110_01K10A (antibody, V domains shown)
# VH: B5 VH with G10A, S30R, S31N, Y100D, S101Y
# VL: B4 VL with G9D, V29L, G30S, T32V, F53S, S66T, L97F
# notes: Tested as non-clonal AlivaMab Mouse hybridoma supernatant (human variable regions and human kappa, mouse Fc); also called ADS75110 non-clonal supernatant 01K10A
# B13: 75110_04P06A (antibody, V domains shown)
# VH: B5 VH with S31N, Y100D, S101Y
# VL: B4 VL with G9D, V29L, G30S, T32V, F53S, S77N, A85V, L97F
# notes: Tested as non-clonal AlivaMab Mouse hybridoma supernatant (human variable regions and human kappa, mouse Fc); also called ADS75110 non-clonal supernatant 04P06A
# B14: 75110_05K11A (antibody, V domains shown)
# VH: B5 VH with A40P, G61A, Y100F, S101Y
# VL: B4 VL with A19V, G30S, S31N, F53S, A85V, Y92H, L97F
# notes: Tested as non-clonal AlivaMab Mouse hybridoma supernatant (human variable regions and human kappa, mouse Fc); also called ADS75110 non-clonal supernatant 05K11A
# B15: 75110_07E04A (antibody, V domains shown)
# VH: B5 VH with A24V, N76K, S77F, S101Y
# VL: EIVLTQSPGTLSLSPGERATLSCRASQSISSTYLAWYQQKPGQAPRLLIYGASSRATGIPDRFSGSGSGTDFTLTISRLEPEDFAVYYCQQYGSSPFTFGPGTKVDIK
# notes: Tested as non-clonal AlivaMab Mouse hybridoma supernatant (human variable regions and human kappa, mouse Fc); also called ADS75110 non-clonal supernatant 07E04A
# B16: 75110_13C07A (antibody, V domains shown)
# VH: B5 VH with G10V, S31N, I69L, N83H, G99A, S101G
# VL: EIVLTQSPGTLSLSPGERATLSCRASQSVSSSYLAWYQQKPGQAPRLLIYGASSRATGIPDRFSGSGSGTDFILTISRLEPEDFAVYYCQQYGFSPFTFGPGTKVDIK
# notes: Tested as non-clonal AlivaMab Mouse hybridoma supernatant (human variable regions and human kappa, mouse Fc); also called ADS75110 non-clonal supernatant 13C07A
# B17: 75110_01N04A (antibody, V domains shown)
# VH: B5 VH with S31N, Y100D, S101F, M105L
# VL: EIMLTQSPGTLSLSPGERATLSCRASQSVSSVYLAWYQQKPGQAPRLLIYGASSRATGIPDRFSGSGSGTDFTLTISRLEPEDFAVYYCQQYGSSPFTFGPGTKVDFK
# notes: Tested as non-clonal AlivaMab Mouse hybridoma supernatant (human variable regions and human kappa, mouse Fc); also called ADS75110 non-clonal supernatant 01N04A
# B18: 75110_02I16A (antibody, V domains shown)
# VH: QVQLQQWGAGLLKPSETLSLTCDVYGGSFSGYYWTWIRQPPGKGLEWIGEINHSGTTNSNPSLKSRVTISVDTSKSQFSLRLSSVTAADTAVYFCTRELNWFDPWGQGTLVTVSS
# VL: B1 VL with S30A, K45Q, F49Y, Q55L, S56G, T69A, Q79H, L96Y, G100Q, V104L
# notes: Tested as non-clonal AlivaMab Mouse hybridoma supernatant (human variable regions and human kappa, mouse Fc); also called ADS75110 non-clonal supernatant 02I16A
# B19: 75110_01H18A (antibody, V domains shown)
# VH: B2 VH with L29F, D76N, R81K, T83S, T96A, L99I, P104S, R107Q
# VL: B1 VL with D28G, N31S, F49Y, L54F, P80T, L96Y, G100Q, K103R, V104L
# notes: Tested as non-clonal AlivaMab Mouse hybridoma supernatant (human variable regions and human kappa, mouse Fc); also called ADS75110 non-clonal supernatant 01H18A
# Target: T1, human CD4 on the surface of SKW3 cells or human PBMCs (human, UniProt P01730 26-458)
# T1 construct: whole, on cells; SKW3 CD4 knockout cells served as the negative cell line; also called hCD4; SKW3 WT
# Experiment: FACS confirmation, supernatant on human PBMCs, anti-mouse Fc A647
row,Binder,"PBMCs, anti-mFc 647 CD4+ Percent Bound of Viable [%]"
1,B1,27
2,B2,28

# Target: T1, human CD4 on the surface of SKW3 cells …
# Experiment: FACS confirmation, supernatant on human PBMCs, anti-mouse Fc A647, CD4+ gate
row,Binder,"PBMCs, anti-mFc 647 CD4+ gate - RL1 Binding"
1,B1,228000
2,B2,260000

# Target: T2, Recombinant human CD4 (R&D Systems, Cat. 10327-CD) (human, UniProt P01730 26-390, limits assumed)
# T2 construct: Bought protein; also called huCD4
# Experiment: BLI (Octet Red 384), non-clonal supernatant captured on AMC sensors, 100 nM human CD4
row,Binder,Response
1,B3,0.0687
2,B4,0.15
3,B5,0.08
4,B6,0.04
5,B7,0.06
6,B8,0.0658
7,B9,0.06
8,B10,0.05
9,B11,0.14
10,B12,0.03
11,B13,0.06
12,B14,0.05
13,B15,0.01
14,B16,0.0171
15,B17,0.06
16,B18,0.0373
17,B19,0.0657

# Target: T1, human CD4 on the surface of SKW3 cells …
# Experiment: FACS confirmation, supernatant on SKW3 WT cells, anti-mouse Fc A647; background gMFI 3300
row,Binder,"SKW3 WT anti-mFc 647, gMFI [gMFI]"
1,B1,26000
2,B2,25300

# Target: T1, human CD4 on the surface of SKW3 cells …
# Experiment: FACS confirmation, supernatant on SKW3 WT cells, anti-human kappa FITC; background gMFI 2500
row,Binder,"SKW3 WT anti-hu Kappa FITC, gMFI [gMFI]"
1,B1,7310
2,B2,7420

# Target: T1, human CD4 on the surface of SKW3 cells …
# Experiment: FACS primary screen, non-clonal hybridoma supernatant, SKW3 vs SKW3 CD4 KO cells, anti-mouse Fc A647
row,Binder,SKW3 WT vs KO anti-mFc-647 [ratio]
1,B1,3.1
2,B2,8.4

# Target: T2, Recombinant human CD4 (R&D Systems, …)
# Experiment: BLI (Octet Red 384), non-clonal supernatant captured on AMC sensors, 100 nM human CD4, 1:1 local fit;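 note: hybridoma antibodies from supernatants, one CD4 concentration giving single-point kinetics per supernatant, with curves fitted over both association and dissociation phases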
Binder,Kd [nM],koff [s⁻¹],kon [M⁻¹ s⁻¹]
B3,2.66,0.000362,136000
B4,0.95,7.1e-05,74000
B5,2.9,0.00065,230000
B6,5.3,0.00025,47000
B7,< 0.001,< 1e-07,37000
B8,0.873,0.000133,152000
B9,< 0.001,< 1e-07,120000
B10,< 0.001,< 1e-07,15000
B11,< 0.001,< 1e-07,100000
B12,340,0.00042,1200
B13,< 0.001,< 1e-07,12000
B14,< 0.001,< 1e-07,12000
B15,11000,0.013,1200
B16,84,0.0182,217000
B17,2.2,4.8e-05,22000
B18,3.9,0.0012,308000
B19,0.902,0.000148,165000

# Target: T1, human CD4 on the surface of SKW3 cells …
# Experiment: FACS primary screen, non-clonal hybridoma supernatant, SKW3 vs SKW3 CD4 KO cells, anti-human kappa FITC
row,Binder,SKW3 WT vs KO anti-hKappa-FITC [ratio]
1,B1,2.4
2,B2,3

# Target: T1, human CD4 on the surface of SKW3 cells …
# Experiment: FACS binning on SKW3 cells; competitor OKT4-Alexa Fluor 488 (its signal read); background 2163, max binding 8200
row,Binder,OKT4 A488 signal
1,B1,9670
2,B2,9760

# Target: T1, human CD4 on the surface of SKW3 cells …
# Experiment: FACS binning on SKW3 cells; competitor RPA-T4-PE-Dazzle 594 (its signal read); background 783, max binding 15000
row,Binder,RPA-T4-PE-Dazzle 594 signal
1,B1,20300
2,B2,19900

# Target: T3, huCD4-HIS (human, UniProt P01730 26-390, limits assumed)
# T3 construct: not shown: HIS tag
# Experiment: ELISA binning; competitor ibalizumab; 100 ng/mL huCD4-HIS, anti-HIS HRP detection; background 45, max binding 3000000
row,Binder,Ibalizumab ELISA binning signal
1,B1,1.03e+06
2,B2,1.57e+06

# Target: T1, human CD4 on the surface of SKW3 cells …
# Experiment: FACS binning on SKW3 cells; competitor OKT4a, anti-human A647 secondary (its signal read); background 5000, max binding 35000
row,Binder,OKT4a anti-hu A647 Secondary signal
1,B1,5340
2,B2,6060
